The DeepSol protein solubility set

Assay: soluble on expression in E. coli; label from the status in PepcDB or PDB records

Row | Sequence | soluble on expression in E. coli
1 | MSLLADLVNLDISDNSEKIIAEYIWVGGSGMDMRSKARTLPGPVTDPSKLPKWNYDGSSTGQAPGQDSEVILYPQAIFKDPFRRGNNILVMCDAYTPAGEPIPTNKRHAAAEIFANPDVIAEVPWYGIEQEYTLLQKDVNWPLGWPIGGFPGPQGPYYCSIGADKSFGRDIVDAHYKASLYAGINISGINGEVMPGQWEFQVGPSVGISAADEIWIARYILERITEIAGVVVSFDPKPIPGDWNGAGAHTNYSTKSMREEGGYEIIKKAIEKLGLRHKEHISAYGEGNERRLTGHHETADINTFLWGVANRGASIRVGRDTEKEGKGYFEDRRPASNMDPYVVTSMIAETTLLWNP | soluble
2 | MGSDKIHHHHHHMARKKNTSDQSRSQAANTPIAGTYEGEYSVIELEADSYTTDGWLISINGVPSSHIVLGQPQALEFEYMRWIATGARAFIDAHQDASKLRITHLGGGACTMARYFADVYPQSRNTVVELDAELARLSREWFDIPRAPRVKIRVDDARMVAESFTPASRDVIIRDVFAGAITPQNFTTVEFFEHCHRGLAPGGLYVANCGDHSDLRGAKSELAGMMEVFEHVAVIADPPMLKGRRYGNIILMGSDTEFFSSNSTEASAITRELLGGGVPAQYKDESWVRKFASGAQARHDGVSTLQMPSDTPQHPAETPEHSNTQP | not soluble
3 | SNAERRLCAILAADMAGYSRLMERNETDVLNRQKLYRRELIDPAIAQAGGQIVKTTGDGMLARFDTAQAALRCALEIQQAMQQREEDTPRKERIQYRIGINIGDIVLEDGDIFGDAVNVAARLEAISEPGAICVSDIVHQITQDRVSEPFTDLGLQKVKNITRPIRVWQWVPDADRDQSHDPQPSHVQH | soluble
4 | MGSDKIHHHHHHMSSLTKMLLILDLFSVDKPIWSADEIIQYCGHSRPTGYRYVKELCDAGLLRRAEGGYSLGPRVIELDYYIRQCDPLLIACRPVMVRVAQESGCDVLLASMYGTKIMAVHQELAHETGQIAFGRGRPMPLFRGGGSKVLLASMTASQLKKLYDRYGAEIAEAGLGATWADFRKQMLKYRNDGHVVSIGELDPNAAGVAIPIPVGDALDPAALVILTTRSRFDLMEKALLVDMAMNAARQIETSMRGNREVQAKALLLS | not soluble
5 | MSETQNSTSQKAMDEDNKAASQTMPNTQDKNYEDELTQVALALVEDVINYAVKIVEEERNPLKNIKWMTHGEFTVEKGLKQIDEYFSKCVSKKCWAHGVEFVERKDLIHSFLYIYYVHWSISTADLPVARISAGTYFTMKVSKTKPPDAPIVVSYVGDHQALVHRPGMVRFRENWQKNLTDAKYSFMESFPFLFNRVLEHHHHHH | soluble
6 | MQDEESLMWVQFGGDDGKQVVAELAMRADKYAVRTRDNSSPVLTGFEGVPTYAYSPAWVIEGRFEPYAEPMDVPIGTANPLVDGVHRSVGEVVFRAPGVPHEIRLHAEEEKLGALNVTFHDETNGDTTDEWRKVFIPRPRPDGSVVIDFNRAINYPSAFTPYGTCPMPVRGNSVDVRVEAGEKLPQGLEHHHHHH | soluble
7 | MSDDKFDAIVVGAGVAGSVAALVMARAGLDVLVIERGDSAGCKNMTGGRLYAHTLEAIIPGFAVSAPVERKVTREKISFLTEESAVTLDFHRGQPDVPQHASYTVLRNRLDPWLMEQAEQAGAQFIPGVRVDALVREGNKVTGVQAGDDILEANVVILADGVNSMLGRSLGMVPASDPHHYAVGVKEVIGLTPEQINDRFNITGEEGAAWLFAGSPSDGLMAGGFLYTNKDSISLGLVCGLGDIAHAQKSVPQMLEDFKQHPAIRPLISGGKLLEYSAHMVPEGGLAMVPQLVNEGVMIVGDAAGFCLNLGFTVRGMDLAIASAQAAATTVIAAKERADFSANSLAQYKRELEQSCVMRDMQHFRKIPALMENPRLFSQYPRMVADIMNEMFTIDGKPNQPVRKMIMGHAKKIGLINLLKDGIKGATAL | not soluble
8 | MGSDKIHHHHHHMSNNIFTVYGEVPELVEKKTKEIVNDYLGQKIDDFNYVKYNLYESDLTPIIEETLTMPFFSNKKAIVVKNSYVFTGEKFSKDLNHNSDELIKFLEKYDGENLIIFEVYQPKLDERKKLTKTLKKNAQLKKIEQMSEKELKHWIKNTLNNNYKDIKQDALELFIELTGVNYNIVSQELEKLILFIGERPIINKDDIDLIINRSLEQNVFLLTEYIQKGNKNKAIQLVNDLIIMKEEPIKLLALITSNYRLYYQCKILSQKGYSGQQIAKTVNAHPYRVKLALNQSRHYKLESLFNIINACAETDYKLKSSYMDKQLILELFILSL | not soluble
9 | MGHHHHHHSHMANSAGSMANSAGSMAKTIKDIKAMVEQAAIQSIHKSSSNVKQIMVKTGQEHIVEDVYGAYDPLLYERTGQVKDAFITTNESNGVSLDNIREDDGKDIATVIETGQGYTYPDSYGYGYGNPRPFMKNTSETLRDGRLTAALKKDLKADGIKTD | not soluble
10 | MGSDKIHHHHHHMTWGCHHLIKKVDASFSLGPISFTLEPGTVTALVGDNGSGKSTFFRLWMDLIKANQGTWERKEGWKEDTAYVPQQLIGIEAFTLEELAYLYEGMYVKWDQKTFERLVESFSLPMKKPLHSLSVGMQKKALFSMAIARKPNLFLLDEPFAGVDMDGQEQMKDELIRYLTGHEQATVLFATHSAQEVKELADYLLVLHQGQMLGFYEKDRLLSSWGRFWLEGNASAIKNEENVVSMKIAGTRIEIITSDALRFEEQIAAAALEKVEAQPLELHEIVRLLKKRNVSVS | not soluble
11 | MSLNPKKYNGDHLDEKSREIMLKTIEFFENMGKAKLKEKASKREWYADFLEFIKENKIFYTLMTPPEYADGDPNVRWDTWRICDFSELLAFYSLDYWYTWQVTVLGLGPIWMSKNEKIKKEVAELLKNGAVFAFGLSEREHGADIYATETKLVPQPDGTYKAYGRKYYIGNSNVAAIISTFARIADPDGSLPDKPDKSRFAFFALRRDEKYYELIKNIVDAQMFVGDFLIHDYPVTEDDILEKGEEAWDAALNTVNVGKFNLGWASIGICTHAFYEAINHASKRRLYGMYVTDFPHIKRLFVDAYARLMAMKLFARRACDYMRVASREDRRYLLYSAMVKSKVTREGEEVINLLWDVIAAKGFEKDTYFEMAARHIRALPKLEGTVHVNMALILKFLPKYLFEPAEFPEVPKMDVPKHDEFLFNQGPSGGLSQVRFHDYQKVYDSFDFPNINVFKEQIATFKEMCMAAPPSPEQMRDFDFMVTWGEMFALLVYGHLILEAAKIYDVDKDLLEEIFDFMIRDFSKFAVELMAKPSATDKQIEYAKKMIKRPVPDKERFERVVKKVYSYADAYEMNEGHHHHHH | not soluble
12 | MGYKPTQRDIVIIDFAPSKGYEIRKRRPALVMSKDSYNISTNLVIVCPITSLDKERPFLVPIYSEKLHTSDNAVSKVNTLQVYSLDYTEQAQRRIKYVDTLDEETFYEIAQKFLQNFSFAV | not soluble
13 | MSLETMNNKYKIMQLSDLHFGQDLGRCDDTNTSSGEHVDEFKCSSDLKTLKFIEKSIQEENPDLIVITGDLIDIHRSIDYKSIMLKSLQPILAHKIKFIYTFGDEIKDQLTKISIIQFLSTLPNCLNTVPQEVIEGITNYNFQIKQKSSTPSSSSSISVTVLDSEDHLIDDSQMTYLYRINNELLNDYKLLFFHYPLPQFRPKGKFKIVGSYNEKHELDRKTKLKFHDDIISCGYNVISVGHEHENDACLLSSSSSSSNSDKSIWLCYNSITGDSGITKLDKQYVRKMRLFEIDFEKNRILSWKRKEIDNQPFDYQLIYEKPQKEGHHHHHH | soluble
14 | MDIRKEFEHLQYFFDSYYNQTFYNAQLEEQFLRFLADEPEWVVRALKLEVEKLERIHHRRDTETWAKIEELVHENSMRYFSFEDGKTFIKVASLLLKDID | not soluble
15 | MNQPSYTSGRQDVALLATTVGDAFDATVARHAEREALVVRHQRLRYSWRQLAERVDAYARAFIALGLRPGERLGIWAPNCAEWCITQFASAKVGAVLVNINPAYRSSELEYALKQSGCSWLICADAFKTSDYHAMLGDLLPELARARPGELASERLPELRGVISLAERAPAGFLHWQGLPGLAAAVGAEELRQRQASLQFDEPINIQYTSGTTGFPKGATLSHYNILNNGYMVGESLGLGAEDRLVIPVPLYHCFGMVMGNLGCVTHGSTMIYPAPSFDAEATLLAVAEERATALYGVPTMFIAELDHPRRREFDLSSLRTGIMAGATCPIEVMRRVIGDMHMAEVQIAYGMTETSPVSLQTGPDDGLELRVTTVGRTQPRLESKIVDQTGRVVPRGEIGELCTRGYSVMLGYWNDPQATAEAIDPARWMHTGDLAVMDDDGYVRIVGRSKDMIIRGGENIYPRELEEFFFTHPAVADVQVIGIPDERYGEEIVAWIKLHPGHHADDEQLRAFCKARIAHFKIPRHFKFVDEFPMTVTGKIQKFRMREISIEEIRLLALRQGR | not soluble
16 | MGQFPRTVVHAAGTTEITTKPERVVVLDTGELDSVLSLGITPVGMTTTKGANPVPSYLADKVKDVERVGTINELNIEAIAALKPDLIIGSQLRADKLYPQLSDIAPTVFSIRPGSPWKENFLLVGEALGMEKEAEEKLNEYADRVAELKNNVPQNTEVSLVRFMPNKLRLYGNKSLIGVVLADAGLARPEKQNVDDLAVEISPENIDQAAGSVIFYTSYGKPDATGETAVVEGPAWKNLEAVAAGKAHRVNDDVWFLGLGPTGAMEIVSDLHDYLLEHHHHHH | soluble
17 | MGHHHHHHSHATGNVCIEEIDVDGKFIRLKNTSEQDQPMGGWEMIRKIGDTSVSYKYTSRYVLKAGQTVTIWAANAGVTASPPTDLIWKNQNSWGTGEDVKVILKNSQGEEVAQRSTVFKT | not soluble
18 | MSLSKYKPTWMIDAIYKITPAQLKKLGIKAVLTDLDNTLIAWNNPDGTEELKTWLLEMKNAGITVLVVSNNKDSRIKRVVEKFDLDYVARALKPTARGFKLAEKKLGLKPSEMLMVGDQIMTDIRGANAAGIRNVLVQPIVDTDGWNTRINRFFERKIMKYLSKKHPEMTWRGGLEEGHHHHHH | soluble
19 | MFISCIILINYSYIFGKNIRYLYEFKVIWKSNNSLILFFIEFDRNFMTIKFKLFKCRRLNILIELINIENYFRNGNILCFIFNIPSIPRNLLINVFLTSSNKVNISIQGLKLEHHHHHH | not soluble
20 | MGSDKIHHHHHHMKTYMISLHGAYENENFGDELLIAIQAKWINDEGYDVCLPFASKVYREQIPSLDKEGSRGLEESEKLIYTGGGYFGEPNHKTFKWGINFFRKKHHIPAKIFKKNNKKYLICGVGAGPITNPITRYTVVKICNFAEKVVVRDTTSYDYLIKYGVIPEKIQVGADVVLSLTIHDLPKGSIEKAKKTLNKDNKNFYLGIHIGVSPDDENYKTNVKAAMESLANVIKRNSVVPVLIADKRNATSTQEKAIEYMSSLLDEEPIVYRHSNIWETCAFLSSLDGVVTTKLHVGITAYTLGTRTFGIAAHQKTRRFYNQIKKENYFYELKEVDNGIESSLELFIKDRYWDEETLQAKKELNERALLCKREMLQFLES | not soluble
21 | MIYDFTTKISRKNLGSLKWDLMYSQNPEVGNEVVPLSVADMEFKNPPELIEGLKKYLDETVLGYTGPTEEYKKTVKKWMKDRHQWDIQTDWIINTAGVVPAVFNAVREFTKPGDGVIIITPVYYPFFMAIKNQERKIIECELLEKDGYYTIDFQKLEKLSKDKNNKALLFCSPHNPVGRVWKKDELQKIKDIVLKSDLMLWSDEIHFDLIMPGYEHTVFQSIDEQLADKTITFTAPSKTFNIAGMGMSNIIIKNPDIRERFTKSRDATSGMPFTTLGYKACEICYKECGKWLDGCIKVIDKNQRIVKDFFEVNHPEIKAPLIEGTYLQWIDFRALKMDHKAMEEFMIHKAQIFFDEGYIFGDGGIGFERINLAAPSSVIQESLERLNKALKDLKNRHLK | soluble
